# Reference: PMC4087149
# What was measured:
# [1] = cell lysate anti-myc blot; details: glycan lost; control: wild type
# [2] = in-gel HA digestion, alcian blue staining; details: glycan lost; control: wild type
Protein,expression_or_secretion [1],enzymatic_activity [2]
hyaluronidase1 (HYAL1): N99Q (protein) parent chain: MAAHLLPICALFLTLLDMAQGFRGPLLPNRPFTTVWNANTQWCLERHGVDVDVSVFDVVANPGQTFRGPDMTIFYSSQLGTYPYYTPTGEPVFGGLPQNASLIAHLARTFQDILAAIPAPDFSGLAVIDWEAWRPRWAFNWDTKDIYRQRSRALVQAQHPDWPAPQVEAVAQDQFQGAARAWMAGTLQLGRALRPRGLWGFYGFPDCYNYDFLSPNYTGQCPSGIRAQNDQLGWLWGQSRALYPSIYMPAVLEGTGKSQMYVQHRVAEAFRVAVAAGDPNLPVLPYVQIFYDTTNHFLPLDELEHSLGESAAQGAAGVVLWVSWENTRTKESCQAIKEYMDTTLGPFILNVTSGALLCSQALCSGHGRCVRRTSHPKALLLLNPASFSIQLTPGGGPLSLRGALSLEDQAQMAVEFKCRCYPGWQAPWCERKSMW,decreases,–
hyaluronidase1 (HYAL1): N216Q (protein) parent chain: MAAHLLPICALFLTLLDMAQGFRGPLLPNRPFTTVWNANTQWCLERHGVDVDVSVFDVVANPGQTFRGPDMTIFYSSQLGTYPYYTPTGEPVFGGLPQNASLIAHLARTFQDILAAIPAPDFSGLAVIDWEAWRPRWAFNWDTKDIYRQRSRALVQAQHPDWPAPQVEAVAQDQFQGAARAWMAGTLQLGRALRPRGLWGFYGFPDCYNYDFLSPNYTGQCPSGIRAQNDQLGWLWGQSRALYPSIYMPAVLEGTGKSQMYVQHRVAEAFRVAVAAGDPNLPVLPYVQIFYDTTNHFLPLDELEHSLGESAAQGAAGVVLWVSWENTRTKESCQAIKEYMDTTLGPFILNVTSGALLCSQALCSGHGRCVRRTSHPKALLLLNPASFSIQLTPGGGPLSLRGALSLEDQAQMAVEFKCRCYPGWQAPWCERKSMW,decreases,decreases
hyaluronidase1 (HYAL1): N350Q (protein) parent chain: MAAHLLPICALFLTLLDMAQGFRGPLLPNRPFTTVWNANTQWCLERHGVDVDVSVFDVVANPGQTFRGPDMTIFYSSQLGTYPYYTPTGEPVFGGLPQNASLIAHLARTFQDILAAIPAPDFSGLAVIDWEAWRPRWAFNWDTKDIYRQRSRALVQAQHPDWPAPQVEAVAQDQFQGAARAWMAGTLQLGRALRPRGLWGFYGFPDCYNYDFLSPNYTGQCPSGIRAQNDQLGWLWGQSRALYPSIYMPAVLEGTGKSQMYVQHRVAEAFRVAVAAGDPNLPVLPYVQIFYDTTNHFLPLDELEHSLGESAAQGAAGVVLWVSWENTRTKESCQAIKEYMDTTLGPFILNVTSGALLCSQALCSGHGRCVRRTSHPKALLLLNPASFSIQLTPGGGPLSLRGALSLEDQAQMAVEFKCRCYPGWQAPWCERKSMW,decreases,decreases
